# Results: patent publication US20120276102A1 (Pfizer, published 2012)
# Changes are numbered by the printed parent chain.
# B1: AbP (antibody, human IgG1, V domains shown)
# VH: QVQLQESGPGLVKPSETLSLTCAVSGYSISSGYYWGWIRQPPGKGLEWIGSISHTGNTYYNPPLKSRVTISVDTSKNQFSLKLSSVTAADTAVYYCARGGGISRPEYWGQGTLVTVSS
# VL: SSELTQDPAVSVALGQTVRITCQGDSLRTYYASWYQQKPGQAPVLVIYGKHKRPSGIPDRFSGSSSGNTASLTITGAQAEDEADYYCVSRSAKGNPHVLFGGGTQLTVL
# notes: CDR3 graft, residue limits derived as for m29; also called VHP/VL20; VHPTM/VL20
# B2: AbQ (antibody, human IgG1, V domains shown)
# VH: B1 VH with G99F, G100M, I102F, S103G
# VL: B1 VL with S89A, A92V, K93V
# notes: CDR3 graft, residue limits derived as for m29; also called VH3/VL2; VH3DM/VL2
# B3: AbR (antibody, human IgG1, V domains shown)
# VH: B1 VH with G99F, G100M, I102F, S103G
# VL: B1 VL with S89T, A92V
# notes: CDR3 graft, residue limits derived as for m29; also called VH3/VL18; VH3DM/VL18
# B4: AbS (antibody, V domains shown)
# VH: B1 VH
# VL: B1 VL with V88M, A92I, K93W
# notes: CDR3 graft, residue limits derived as for m29; also called VHP/VL6; VHPTM/VL6
# B5: AbT (antibody, human IgG1, V domains shown)
# VH: B1 VH
# VL: B1 VL with S89A, A92N
# notes: CDR3 graft, residue limits derived as for m29; also called VHP/VL9; VHPTM/VL9
# B6: AbU (antibody, human IgG1, V domains shown)
# VH: B1 VH
# VL: B1 VL with V88T, S89T, A92N
# notes: CDR3 graft, residue limits derived as for m29; also called VHP/VL25; VHPTM/VL25
# B7: AbO (antibody, human IgG1, V domains shown)
# VH: B1 VH
# VL: B1 VL with S89T
# notes: CDR3 graft, residue limits derived as for m29; also called VHP/VL16; VHPTM/VL16
# B8: parental 18A5 antibody (antibody, V domains shown)
# VH: B1 VH with P14T, Q110K
# VL: SSELTQDPPVSVALGQTVTLTCQGDSLRTYYASWYQQKSGQAPILLLYGKHKRPSGIPDRFSGSTSGDTASLTITGAQAEDEADYYCNSRDSSGNPHVLFGGGTQLTVL
# notes: also called 18A5 IgG
# Biological target: T1, human IL-21R extracellular domain His-Flag fusion protein (human, UniProt Q9HBE5 20-232)
# T1 construct: Biotinylated in the HTRF screen; also called hIL-21R-H/F; human IL-21R-H/F
# Test: SPR, Ab captured on anti-human IgG
# Method: (§1) The kinetics of binding of anti-IL-21R antibodies to human and murine IL-21R-H/F was tested on a BIACORE™ surface plasmon resonance instrument. Anti-human IgG antibodies (Invitrogen Corporation) were immobilized onto a research-grade carboxy-methyl-dextran chip (CM5) using standard amine coupling. The surface was activated with EDC/NHS for 7 min at a flow of 20 μl/min. The first flow cell was used as a reference surface to correct for bulk refractive index, matrix effects, and nonspecific binding. The anti-human-Fc antibody was diluted to 20 μg/ml in 10 mM sodium acetate buffer (pH 5.0), and 2950-3405 resonance units (RU) were captured on each of the four flow cells. Remaining activated groups were blocked with 1.0 M ethanolamine-HCl (pH 8.5).
# (§2) Anti-IL-21R antibodies were diluted to 0.1-0.2 μg/ml in HBS/EP buffer supplemented with 0.2% bovine serum albumin and loaded onto the BIACORE™ chip. Following a brief washing period, solutions of 0-100 nM human IL-21R-H/F or 10-500 nM murine IL-21R-H/F were injected over the chip at a flow rate of 50 μl/min. The association phase was run for 3 min for human and murine IL-21R kinetics, and the dissociation phase was monitored for 15 min for hIL-21R and for 5 min for mIL-21R, followed by two 10 μl injections and one 30 μl injection of glycine (pH 1.5), to regenerate a fully active capturing surface. All binding experiments were done at 25° C. in HBS/EP buffer, and the sample rack was kept at 15° C. Blank and buffer effects were subtracted for each sensorgram using double referencing.
# T1 sequence (Q9HBE5 20-232): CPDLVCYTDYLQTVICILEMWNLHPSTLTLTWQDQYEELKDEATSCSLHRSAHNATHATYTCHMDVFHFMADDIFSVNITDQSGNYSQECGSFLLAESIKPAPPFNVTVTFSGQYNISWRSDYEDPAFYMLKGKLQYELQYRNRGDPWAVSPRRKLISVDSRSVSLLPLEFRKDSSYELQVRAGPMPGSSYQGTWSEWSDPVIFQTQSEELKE
Binder,Kd,koff,kon
B1,0.615 nM,0.000119 s⁻¹,194000 M⁻¹ s⁻¹
B2,0.213 nM,9.34e-05 s⁻¹,439000 M⁻¹ s⁻¹
B3,0.567 nM,9.61e-05 s⁻¹,170000 M⁻¹ s⁻¹
B4,2.02 nM,0.000291 s⁻¹,144000 M⁻¹ s⁻¹
B5,0.379 nM,6.78e-05 s⁻¹,179000 M⁻¹ s⁻¹
B6,0.44 nM,8.18e-05 s⁻¹,186000 M⁻¹ s⁻¹
B7,0.475 nM,0.000114 s⁻¹,241000 M⁻¹ s⁻¹
B8,4.43 nM,0.00108 s⁻¹,243000 M⁻¹ s⁻¹

# Biological target: T2, murine IL-21R extracellular domain His-Flag fusion protein (murine, UniProt Q9JHX3 20-237)
# T2 construct: Biotinylated in the ELISAs; also called mIL-21R-H/F; murine IL-21R-H/F
# Test: SPR, Ab captured on anti-human IgG
# Method: as §1, §2
Binder,Kd,koff,kon
B1,50.8 nM,0.00508 s⁻¹,99900 M⁻¹ s⁻¹
B2,68.8 nM,0.0207 s⁻¹,301000 M⁻¹ s⁻¹
B3,64.5 nM,0.00493 s⁻¹,76500 M⁻¹ s⁻¹
B4,16.7 nM,0.00332 s⁻¹,199000 M⁻¹ s⁻¹
B5,15.7 nM,0.00331 s⁻¹,211000 M⁻¹ s⁻¹
B6,44.2 nM,0.00434 s⁻¹,98100 M⁻¹ s⁻¹
B7,49.2 nM,0.00549 s⁻¹,112000 M⁻¹ s⁻¹
B8,72 nM,0.0153 s⁻¹,212000 M⁻¹ s⁻¹

# Biological target: T3, human IL-21R expressed on cells (human, UniProt Q9HBE5 20-538)
# T3 construct: also called human IL-21R-BaF3; human IL-21R-TF1
# Test: cell-based ELISA on CHO cells transiently expressing human IL-21R; HRP anti-human IgG, A450
# Method: (§3) FIG. 6(a-l) depicts the binding of 21 anti-IL-21R IgGs to CHO cells transiently expressing human IL-21R (FIGS. 6a-c), rat IL-21R (FIGS. 6d-f), cynomolgus monkey IL-21R (FIGS. 6g-i), and human gamma common chain (FIGS. 6j-1). CHO cells were transiently transfected with IL-21R or the control gamma common chain, and binding was detected with HRP-conjugated anti-human IgG in a cell-based ELISA.
# (§4) A subset of binding proteins was tested for binding to rat, cynomolgus monkey, human IL-21R, or human IL-2R-γ common subunit expressed transiently on the surfaces of CHO-PA-Dukx cells. Cells were transfected 48 hr prior to the assay. On the day of the assay, cells were washed gently 5× in PBS containing 0.9 mM CaCl₂ and 0.45 mM MgCl₂ (PBS/CaMg) on an automated plate washer (Titertek, Huntsville, Ala.), and blocked for 1 hr at RT in PBS/CaMg/5% nonfat dry milk. Conditioned media from transiently expressed anti-IL-21R IgGs were serially diluted in blocking buffer and added to the cells in the blocked plates for 1 hr at RT. Cells were washed 5× with PBS/CaMg and then incubated with horseradish peroxidase-conjugated anti-human IgG for 1 hr at RT. Cells were then washed 10× in PBS/CaMg and all of the wash buffer was removed. Cells were incubated with 100 μl TMB until the color reaction reached saturation, stopped with 100 μl of 0.18 M H₂SO₄, and read at A450 on a Perkin Elmer ENVISION™ plate reader.
# T3 sequence (Q9HBE5 20-538 limits assumed): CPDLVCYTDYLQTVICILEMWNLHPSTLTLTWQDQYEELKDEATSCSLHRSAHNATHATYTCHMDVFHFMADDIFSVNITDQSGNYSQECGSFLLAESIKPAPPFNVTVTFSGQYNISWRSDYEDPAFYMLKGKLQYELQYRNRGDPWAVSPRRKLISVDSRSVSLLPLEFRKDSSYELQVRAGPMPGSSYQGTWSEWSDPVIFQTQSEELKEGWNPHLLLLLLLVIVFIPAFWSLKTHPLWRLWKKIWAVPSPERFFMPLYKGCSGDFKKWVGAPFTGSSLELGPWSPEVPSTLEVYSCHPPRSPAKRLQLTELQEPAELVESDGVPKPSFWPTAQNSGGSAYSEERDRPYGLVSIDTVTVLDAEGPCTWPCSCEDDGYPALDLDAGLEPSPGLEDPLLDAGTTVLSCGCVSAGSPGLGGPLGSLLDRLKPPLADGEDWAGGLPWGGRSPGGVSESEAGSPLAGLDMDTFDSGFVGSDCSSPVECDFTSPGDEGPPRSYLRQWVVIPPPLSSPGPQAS
row,Binder,EC50 (read off the curve)
1,B1,~1 nM
2,B2,~0.9 nM
3,B3,~0.5 nM
4,B5,~1 nM
5,B6,~2 nM
6,B7,~0.4 nM
7,B8,~0.6 nM

# Biological target: T3, human IL-21R expressed on cells
# Test: cell-based or functional assay
row,Binder,Neutralization of human primary T cell Proliferation IC50
1,B1,0.02 nM
2,B2,0.08 nM
3,B3,0.04 nM
4,B4,0.06 nM
5,B5,0.03 nM
6,B6,0.03 nM
7,B7,0.06 nM
8,B8,1.42 nM

# Biological target: T4, human gamma (γ) common chain expressed on CHO cells (human, UniProt P31785 23-369)
# T4 construct: whole, on cells; Control protein; also called human IL-2R-γ common subunit; human γ-common
# T4 sequence (looked up): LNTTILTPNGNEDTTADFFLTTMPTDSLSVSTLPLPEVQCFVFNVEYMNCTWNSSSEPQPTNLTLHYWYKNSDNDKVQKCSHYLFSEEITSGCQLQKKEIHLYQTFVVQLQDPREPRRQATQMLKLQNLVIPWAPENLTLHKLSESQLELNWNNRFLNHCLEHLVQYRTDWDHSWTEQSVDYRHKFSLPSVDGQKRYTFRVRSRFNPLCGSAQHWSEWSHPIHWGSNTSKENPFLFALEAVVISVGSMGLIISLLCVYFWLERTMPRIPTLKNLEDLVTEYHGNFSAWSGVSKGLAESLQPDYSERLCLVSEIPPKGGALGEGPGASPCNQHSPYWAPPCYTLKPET
# Test: cell-based ELISA on CHO cells transiently expressing human gamma common chain; HRP anti-human IgG, A450
# Method: as §3, §4
row,Binder,binding result
1,B1,no binding (tested: 40 nM)
2,B2,no binding (tested: 40 nM)
3,B3,no binding (tested: 40 nM)
4,B4,no binding (tested: 40 nM)
5,B5,no binding (tested: 40 nM)
6,B6,no binding (tested: 40 nM)
7,B7,no binding (tested: 40 nM)
8,B8,no binding (tested: 13 nM)
